{
  "source": "paper PMC5986765",
  "about": "(Cell Discovery, 2018)",
  "molecules": {"B1": {"name": "truncated chicken ASIC1a (residues 14-463), cASIC1a^ΔNC (domain or fragment)", "chain": "GQPVSIQAFASSSTLHGISHIFSYERLSLKRVVWALCFMGSLALLALVCTNRIQYYFLYPHVTKLDEVAATRLTFPAVTFCNLNEFRFSRVTKNDLYHAGELLALLNNRYEIPDTQTADEKQLEILQDKANFRNFKPKPFNMLEFYDRAGHDIREMLLSCFFRGEQCSPEDFKVVFTRYGKCYTFNAGQDGKPRLITMKGGTGNGLEIMLDIQQDEYLPVWGETDETSFEAGIKVQIHSQDEPPLIDQLGFGVAPGFQTFVSCQEQRLIYLPPPWGDCKATTGDSEFYDTYSITACRIDCETRYLVENCNCRMVHMPGDAPYCTPEQYKECADPALDFLVEKDNEYCVCEMPCNVTRYGKELSMVKIPSKASAKYLAKKYNKSEQYIGENILVLDIFFEALNYETIEQKKAYEVAGLLGDIGGQMGLFIGASILTVLELFDYAYEVIKHR", "notes": "not shown: His8, N-terminal, cleaved; EGFP, N-terminal, cleaved"}},
  "key": {"chicken ASIC1a (cASIC1a)": {"molecular_target": "T1, chicken ASIC1a (cASIC1a) (Gallus gallus, UniProt Q1XA76)", "T1 construct": "expressed in transfected cells; host or cells: CHO cells, transient transfection, pcDNA3.1/Zeo(+)", "T1 sequence (Q1XA76 1-527)": "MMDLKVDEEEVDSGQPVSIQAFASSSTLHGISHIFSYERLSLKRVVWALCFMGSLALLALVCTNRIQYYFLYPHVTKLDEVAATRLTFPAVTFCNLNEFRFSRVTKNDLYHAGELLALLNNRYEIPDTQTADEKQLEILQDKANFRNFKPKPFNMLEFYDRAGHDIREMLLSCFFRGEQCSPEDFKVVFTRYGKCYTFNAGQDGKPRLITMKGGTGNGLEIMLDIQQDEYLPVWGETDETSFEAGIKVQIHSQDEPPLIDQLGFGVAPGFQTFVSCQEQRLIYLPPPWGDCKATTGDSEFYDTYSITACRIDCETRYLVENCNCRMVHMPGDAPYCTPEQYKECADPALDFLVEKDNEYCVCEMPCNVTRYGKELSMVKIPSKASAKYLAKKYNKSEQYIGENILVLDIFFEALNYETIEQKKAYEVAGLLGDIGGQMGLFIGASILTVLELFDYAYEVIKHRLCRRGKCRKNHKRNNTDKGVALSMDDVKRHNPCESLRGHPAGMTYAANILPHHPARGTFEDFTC", "test": "whole-cell patch clamp in CHO cells, inhibition of chicken ASIC1a", "assay_type": "cell-based", "conditions": "for effect of mambalgin-1 point mutants on wild-type cASIC1a: 500 nM, means ± S.E., t-test versus WT, n = 4–13, bar graph Fig. 3e, values not given", "text": "(§1) Fig. 1 Chemical synthesis and bioactivity analysis of mambalgin-1. a Synthetic route of mambalgin-1 and its mutants. b Synthetic mambalgin-1 inhibits recombinant human and chicken ASIC1a (hASIC1a and cASIC1a) channels in CHO cells. After two stable records of acid currents that were elicited by a pH drop from 7.4 to 6.0 for 4 s, synthetic mambalgin-1 was applied at pH 7.4 for 30 s followed by another application during a 4spH drop to 6.0. c Concentration–response curve showing the inhibition of hASIC1a and cASIC1a channels expressed in CHO cells (n = 3–14) by synthetic wild-type mambalgin-1\nThe coding sequence for wild-type cASIC1a was sub-cloned into the pcDNA3.1/Zeo( + ) vector. All site-directed mutations were generated with overlap PCR and inserted into pcDNA3.1/Zeo(+). The mutants were sequenced to verify that no unwanted mutations had been introduced. Chinese hamster ovary (CHO) cells were cultured in DMEM/F12 medium (Gibco) supplemented with 10% fetal bovine serum (FBS), 100 U/mL penicillin, and 100 U/mL streptomycin at 37 °C in a 5% CO2 incubator. The CHO cells were transferred to 24-well plates for transfection. When the CHO cells reached 90% confluence, they were transfected with 0.6 μg of plasmid encoding EGFP and 0.8 μg of plasmid encoding wild-type or mutant cASIC1a using Lipofectamine 2000 (Invitrogen, USA). After incubation for 5 h, the cells were transferred to poly-L-lysine (Sigma)-coated slides for culture for another 24–48 h in fresh medium. They were then used for the electrophysiological analysis.\nFor the whole-cell recordings, the bath solution contained 150 mM NaCl, 4 mM KCl, 2 mM CaCl2, 1 mM MgCl2, and 10 mM HEPES (pH 7.4, ~308 mOsm). For acidic solution below pH 6.0, HEPES was replaced by 10 mM MES to buffer solutions. The electrodes were pulled from thick-walled borosilicate glass capillaries with filaments (1.5 mm diameter; Sutter Instruments) on a four-stage puller (P-1000; Sutter, USA) and had resistances of 2–5 MΩ when filled with intracellular solution containing 140 mM KCl, 10 mM NaCl, 5 mM EGTA, 10 mM HEPES, (pH 7.4, ~297 mOsm). All chemicals were obtained from Sigma. The experiments were performed at room temperature with an EPC-10 amplifier (HEKA Electronic) with the data acquisition software PatchMaster. Membrane potential was held at −70 mV in all experiments. Acid-induced currents were recorded by rapidly exchanging local solution from pH 7.4 to acidic pH through a Y-tube perfusion system. Toxins were applied 30 s before the pH decreased and persisted during low pH application. Channels were activated by acid perfusion at least every 2 min to allow for a complete recovery of the channels from desensitization. Recordings in which access resistance or capacitance changed by 10% during the experiment were excluded from data analysis. Mambalgin-1 was added when the currents were stable.\n(§2) The data were analyzed with Clampfit and SigmaPlot. The dose–response curves used to determine the IC50 values were fitted using the Hill equation: y = 1 + (Imax−1)/(1 + (IC50/x)^h), where y represents the normalized current, Imax represents the control current of ASIC1 detected in each set of experiments; x is the toxin concentration, h is the Hill coefficient, and IC50 is the half-maximal concentration. The results are presented as the means ± standard errors (SE), and n is the number of experiments."}, "human ASIC1a (hASIC1a)": {"molecular_target": "T2, human ASIC1a (hASIC1a) (Homo sapiens, UniProt P78348)", "T2 construct": "expressed in transfected cells; host or cells: CHO cells", "T2 sequence (P78348 1-528)": "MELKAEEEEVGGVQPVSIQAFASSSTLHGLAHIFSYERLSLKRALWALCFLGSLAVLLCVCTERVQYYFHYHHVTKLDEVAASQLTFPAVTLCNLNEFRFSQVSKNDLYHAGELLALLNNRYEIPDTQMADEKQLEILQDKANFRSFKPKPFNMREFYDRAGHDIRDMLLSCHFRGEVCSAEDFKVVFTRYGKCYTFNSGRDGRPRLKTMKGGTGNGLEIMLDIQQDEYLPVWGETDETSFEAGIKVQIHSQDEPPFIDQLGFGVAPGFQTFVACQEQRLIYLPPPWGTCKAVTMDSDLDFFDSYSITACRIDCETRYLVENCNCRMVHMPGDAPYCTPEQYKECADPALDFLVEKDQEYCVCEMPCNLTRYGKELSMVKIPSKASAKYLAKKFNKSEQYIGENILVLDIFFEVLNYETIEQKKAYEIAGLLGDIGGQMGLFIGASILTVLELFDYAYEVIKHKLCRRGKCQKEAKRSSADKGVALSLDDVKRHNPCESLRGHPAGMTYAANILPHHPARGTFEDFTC", "test": "whole-cell patch clamp in CHO cells, inhibition of human ASIC1a", "assay_type": "cell-based", "conditions": "synthetic mambalgin-1, whole-cell recording at −70 mV, pH drop from 7.4 to 6.0 for 4 s, toxin applied 30 s before at pH 7.4 and during acid, room temperature, Hill fit, mean ± SE, n = 3–14", "text": "as §1\nThe coding sequence for wild-type cASIC1a was sub-cloned into the pcDNA3.1/Zeo( + ) vector. […]\nFor the whole-cell recordings, the bath solution contained 150 mM NaCl, 4 mM KCl, 2 mM CaCl2, 1 mM MgCl2, and 10 mM HEPES (pH 7.4, ~308 mOsm). […] Acid-induced currents were recorded by rapidly exchanging local solution from pH 7.4 to acidic pH through a Y-tube perfusion system. […]\nas §2, with “The results are presented as the means ± standard errors (SE), and n is the number of experiments.” left out"}, "mice": {"tested_on": "mice", "conditions": "cited from earlier work", "text": "Mambalgin-1, a toxin isolated from black mamba venom, is a disulfide-rich polypeptide consisting of 57 amino acids and belongs to the family of three-finger toxins[31],[38]."}, "ASIC1a": {"tested_on": "ASIC1a", "conditions": "cited from earlier work", "text": "Mambalgin-1 can bind to and stabilize ASICs in a physiologically relevant closed-channel conformation, but the underlying binding and inhibition mechanism remains elusive. […] Previously, a docked structure of the cASIC1a–mambalgin-1 complex was reported[23],[24], following the crystal structure of the cASIC1a–PcTx1 complex. Mambalgin-1 was predicted to insert into the acidic pocket (also known as the acid-sensing pocket) inside t ..."}, "[1]": {"molecular_target": "B1", "test": "cryo-EM structure", "conditions": "both partners purified"}, "[2]": {"molecular_target": "the molecule itself", "test": "cryo-EM structure; […] 5.7 Å overall map, 5.4 Å map of the extracellular part; poly-alanine model by rigid-body fitting of crystal structures"}},
  "note": "Bridge positions count the residues as written; N and C are the ends. Ends that are not written are not given here.",
  "data": [
    {"molecule": "F27A: mutation of mambalgin-1 in the Finger II region (LKCYQHGKVVTCHRDMKFCYHNTGMPARNLKLILQGCSSSCSETENNKCCSTDRCNK; disulfide (positions not given here); ends not checked; UniProt P0DKR6 22-78, looked up, variant F27A)", "values": [
      {"measurement": "effect of mambalgin-1 point mutants on wild-type cASIC1a", "setting": "chicken ASIC1a (cASIC1a)", "value": "perturbed the inhibitory effects of the cASIC1a channel"}
    ]},
    {"molecule": "H6A: mutation of mambalgin-1 in the Finger I region (LKCYQAGKVVTCHRDMKFCYHNTGMPFRNLKLILQGCSSSCSETENNKCCSTDRCNK; disulfide (positions not given here); ends not checked; UniProt P0DKR6 22-78, looked up, variant H6A)", "values": [
      {"measurement": "effect of mambalgin-1 point mutants on wild-type cASIC1a", "setting": "chicken ASIC1a (cASIC1a)", "value": "perturbed the inhibitory effects of the cASIC1a channel"}
    ]},
    {"molecule": "R28A: mutation of mambalgin-1 in the Finger II region (LKCYQHGKVVTCHRDMKFCYHNTGMPFANLKLILQGCSSSCSETENNKCCSTDRCNK; disulfide (positions not given here); ends not checked; UniProt P0DKR6 22-78, looked up, variant R28A)", "values": [
      {"measurement": "effect of mambalgin-1 point mutants on wild-type cASIC1a", "setting": "chicken ASIC1a (cASIC1a)", "value": "perturbed the inhibitory effects of the cASIC1a channel"}
    ]},
    {"molecule": "K8A: mutation of mambalgin-1 in the Finger I region (LKCYQHGAVVTCHRDMKFCYHNTGMPFRNLKLILQGCSSSCSETENNKCCSTDRCNK; disulfide (positions not given here); ends not checked; UniProt P0DKR6 22-78, looked up, variant K8A)", "values": [
      {"measurement": "effect of mambalgin-1 point mutants on wild-type cASIC1a", "setting": "chicken ASIC1a (cASIC1a)", "value": "perturbed the inhibitory effects of the cASIC1a channel"}
    ]},
    {"molecule": "LKCYQHGKVVTCHRDMKFCYHNTGMPFRNLKLILQGCSSSCSETENNKCCSTDRCNK-NH2 (disulfide 3-19, 12-37, 41-49, 50-55) [mambalgin-1]", "values": [
      {"measurement": "IC50", "setting": "human ASIC1a (hASIC1a)", "value": "197 ± 18.7", "unit": "nM"},
      {"measurement": "IC50", "setting": "chicken ASIC1a (cASIC1a); synthetic mambalgin-1, whole-cell recording at −70 mV, pH drop from 7.4 to 6.0 for 4 s, toxin applied 30 s before at pH 7.4 and during acid, room temperature, Hill fit, mean ± SE, n = 3–14", "value": "124 ± 20.3", "unit": "nM"},
      {"measurement": "adverse side effects relative to traditional opioid drugs", "setting": "mice", "value": "fewer adverse side effects than traditional opioid drugs"}
    ]},
    {"molecule": "PcTx1 (EDCIPKWKGCVNRHGDCCEGLECWKRRRSFEVCVPKTPKT; ends and bridges not checked; cysteine pairing not given here; UniProt P60514 1-40, looked up)", "values": [
      {"measurement": "channel states bound, PcTx1", "setting": "ASIC1a", "value": "binds tightly to the open and desensitized states of ASIC1a"}
    ]},
    {"molecule": "Q5A: mutation of mambalgin-1 in the Finger I region (LKCYAHGKVVTCHRDMKFCYHNTGMPFRNLKLILQGCSSSCSETENNKCCSTDRCNK; disulfide (positions not given here); ends not checked; UniProt P0DKR6 22-78, looked up, variant Q5A)", "values": [
      {"measurement": "effect of mambalgin-1 point mutants on wild-type cASIC1a", "setting": "chicken ASIC1a (cASIC1a)", "value": "perturbed the inhibitory effects of the cASIC1a channel"}
    ]},
    {"molecule": "mambalgin-1 (also called synthetic mambalgin-1; wild-type mambalgin-1) LKCYQHGKVVTCHRDMKFCYHNTGMPFRNLKLILQGCSSSCSETENNKCCSTDRCNK", "values": [
      {"measurement": "stoichiometry N", "setting": "[1]", "value": "3 mambalgin-1 per cASIC1a trimer"}
    ]},
    {"molecule": "B1", "values": [
      {"measurement": "stoichiometry N", "setting": "[2]", "value": 3}
    ]}
  ]
}
